Measurements published in patent US20240101708A1 (Genentech, published 2024).

Legend:
[1] = molecular target: T1, recombinant human ZNRF3 extracellular domain (human, UniProt Q9ULT6 56-219); test: SPR Biacore 8K; antibody captured on Protein A; ZNRF3 ECD analyte; 25 C
T1 construct: extracellular domain; also called huZNRF3; human ZNRF3 ECD
T1 sequence (looked up): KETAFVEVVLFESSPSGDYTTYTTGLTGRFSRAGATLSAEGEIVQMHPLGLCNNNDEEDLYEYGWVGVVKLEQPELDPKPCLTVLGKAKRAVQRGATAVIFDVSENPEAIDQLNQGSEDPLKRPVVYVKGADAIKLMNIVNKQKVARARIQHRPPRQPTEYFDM
Experimental: Antibodies were screened for binding to recombinant human RNF43 and ZNRF3 ECDs using a Biacore® 8 k instrument (GE Life Sciences). Briefly, antibodies diluted to 1 μg/ml in 1×HBSP buffer (Cytiva, BR100368) were captured on a Sensor Chip Protein A (GE Life Sciences) using a flow rate of 10 μl/minute and a contact time of 60 seconds. Binding of recombinant human RNF43 and ZNRF3 extracellular domain to the captured antibodies was analyzed at 25° C. using a single cycle kinetics method with a flow rate of 30 μl/minute, a contact time of 180 seconds and a dissociation time of 600 seconds. The concentration of recombinant human RNF43 and ZNRF3 extracellular domain in the single cycle kinetics were 0, 0.8, 4, 20, and 100 nM. Between cycles, the chip was regenerated using 10 mM Glycine HCl pH 1.5 injected for 30 seconds at 30 μl/minute. Data were evaluated using Biacore 8K Evaluation software (GE Life Sciences). Kinetic constants were obtained using a 1:1 binding model with the parameter RI set to zero. Cell surface ligase antibodies with sub-nanomolar affinities may provide advantages in certain instances, for example, in the degradation efficiency which is correlated with the durability of the ternary complex as shown in FIG. 5D.

[2] = molecular target: T2, recombinant human RNF43 extracellular domain (human, UniProt Q68DV7 24-197); test: SPR Biacore 8K; antibody captured on Protein A; RNF43 ECD analyte; 25 C
T2 construct: extracellular domain; also called huRNF43; human RNF43 ECD
T2 sequence (looked up): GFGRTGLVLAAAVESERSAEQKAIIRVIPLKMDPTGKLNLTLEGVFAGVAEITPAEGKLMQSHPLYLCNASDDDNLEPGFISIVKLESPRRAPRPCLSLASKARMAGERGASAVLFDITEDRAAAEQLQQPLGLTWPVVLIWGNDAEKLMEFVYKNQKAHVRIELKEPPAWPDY

B1: ZNRF3-333 (antibody, V domains shown)
VH: QSLEESGGGLVQPEGSLTLTCTASGIDFSARSYMCWVRQAPGKGLEWVACIYTGSSGSTYYANWAKGRFTISKTSSTTVTLRMTSLTAADTASYFCARGAYVGYGFAAYFTLWGPGTLVTVSS
VL: DIVMTQTPASVEAAVGGTVTINCQASQSISSYLAWYQQKPGQPPKLLIYYASNLESGVPSRFKGSGSGTQFTLTISDLECADAATYYCQAYYSSITGWAFGGGTEVVVK
notes: Rabbit clone; VH/VL only
Kd [1]: 8.7 nM

B2: ZNRF3-163 (antibody, V domains shown)
VH: EVQLEESGGGLVQPGRSMKFSCAASGFTFSNYYMAWVRQAPSKGLEWVASISTGGGDVYYRDSVKGRFTISRDNAKSTLYLQMDSLRSEDTATYYCARHSGGRIRARGHYFDYWGQGVMVTVSS
VL: DIQMTQSPASLSASLGETVSIECLASEDISNDLAWYQQKSGKSPQVLIYGVSRLQDGVPSRFSGSGSGTRYSLKISGMQPEDEADYFCQQSYKYPYTFGAGTKLELK
notes: Rat clone; VH/VL only
Kd [1]: 0.61 nM

B3: ZNRF3-90 (antibody, V domains shown)
VH: EVQLVESGGGLVQPGRSMKLSCAASGFTFSNYYMAWVRQAPRKGLEWVASITTGGTNTYYRDSVRGRFTISRDNAKSTLYLQMDSLRSEETATYYCARHSGGLIRARGHYFHYWGQGVMVTVSS
VL: DIQMTQSPASLSASLGEIVSIECLASEGISNDLAWYQQKSGKSPQVLVYAASRLQDGVPSRFSGSGSGTRYSLKISGMQPEDEADYFCQQSYTYPYTFGAGTKLELK
notes: Rat clone; VH/VL only
Kd [1]: 0.27 nM

B4: ZNRF3-195 (antibody, V domains shown)
VH: EVQLVESGGGLVQPGNSLNLSCSASGFPFSTYGMHWIRQAPGKGLDWVAYISYNSGTVYADAVKGRFTISRDNAKNTLYLQLNSLKSEDTAIYYCARGYYDGYYRYWGQGVMVTVSS
VL: DIVMTQSPFSLAVSEGEMVTINCKSSQSLLSSGNQKNYLAWYQQRPGQSPKLLIYHASTRQSGVPDRFIGSGSGTDFTLTISDVQAEDLADYYCLQHYSSPTFGSGTKLEIK
notes: Rat clone; VH/VL only
Kd [1]: 0.27 nM

B5: ZNRF3-6 (antibody, V domains shown)
VH: EVQLVESGGGLVPPGKSLKLSCSASGFPFSNYGMHWIRQAPGKGLDWVGYISSNSGTIYADAVKGRFTISRDNAKNTLYLLINSLKSEDTAMYYCARGYFDGYYRFWGQGVMVTVSS
VL: DIVMTQSPFSLAVSEGDMVTIMCRSSQSLLSSGNQKNYLAWYQQKPGQSPKLLIYHASTRQSGVPDRFIGSGSGTDFTLTISDVQAEDLADYYCLQHYSSPTFGSGTKLEIK
notes: Rat clone; VH/VL only
Kd [1]: 0.12 nM

B6: RNF43-2 (antibody, V domains shown)
VH: QSLEESGGDLVKPGASLTLTCTASGFSFSSSYYMCWVRQAPGKGLELIGCGFTGRHYTYYASWAKGRFTISKSSSTTVTLQMTSLTAADTATYFCARKSGSDYDYFDLWGPGTLVTVSS
VL: AYDMTQTPASVEAVVGGTVTIKCQASQSINSWLSWYQQKPGQRPKLLIYRASTLASGVSSRFKGSGSGTEFTLTISDLECADAATYYCQQGYVSSNINNVFGGGTEVVVK
notes: Rabbit clone; VH/VL only
binding result [2]: no binding

B7: RNF43-20 (antibody, V domains shown)
VH: REQLVESGGGLVQPEGSLTLTCKASGFDFSSNVMCWVRQAPGKGLEWIGCIYTGSGSTAYASWAKGRFTITRSTSLNTVTLQMTSLTAADTATYFCARYVSGGEYYNLWGPGTLVTVSS
VL: ALVMTQTPASVEAAVGGTVTIKCQASQSISSYLNWYQQKPGQPPKLLIYKASTLASGVSSRFKGSGSGTQFTLTISDLECADAATYYCQQGSSWNSIENIFGGGTEVVVK
notes: Rabbit clone; VH/VL only
binding result [2]: no binding

B8: ZNRF3-17 (antibody, V domains shown)
VH: EVQLVESGGGLVQPGGSLKLSCAASGFTFSNYDMAWVRQAPTKGLEWVASISTGGGKTYYRDSVKGRLTISRDNAKNTQYLQMDSLRSEDTATYYCARLGPAYSGEWFAYWGQGTLVTVSS
VL: DTVLTQSPALAVSPGERVTISCGASEGVNTRMHWYQQRSGQQPKLLIYGSSNLDSGVPDRFSGSGSGTDFTLTIDPVEAKDAATYFCQQSWNVPNTFGAGTKLELK
notes: Rat clone; VH/VL only
Kd [1]: 0.04 nM

B9: ZNRF3-55 (antibody, V domains shown)
VH: EVHLVESGGGLVQPGGSLKLSCAASGFTFSNYDMAWVRQAPTRGLEWVASISPGGGKTYYRDSVKGRLTISRNNAENTQYLQIDSLRSEDTATYYCSRLGPAYSGEWFAYWGQGTLVTVSS
VL: DTVLTQSPALTVSPGDKITISCRASEGVNTRIHWYQQKSGQQPKLLIYGASNLDSGVPDRFSGSGFGTDFTLTIDPVEASDTATYFCQQSWNVPHTFGGGTKLELK
notes: Rat clone; VH/VL only
Kd [1]: 0.02 nM

B10: ZNRF3-128 (antibody, V domains shown)
VH: EVQLVESGGGLVQPGKSLKLSCSASGFTFSSYGMHWIRQAPGKGLDWVAYISTNSATVYADAVKGRFTISRDNAKNTLYLQLNSLKSEDTAIYYCARSGYTTYMPFTYWGQGTLVTVSS
VL: DVLMTQTPVSLPVSLGGQVSISCRSSQSLVHSDGNTYLHWYLQKPGQSPQLLIYRVSNRFSGVSDRFSGSGSGTDFTLKISRVEPDDLGIYYCLQTTHFLTWTFGGGTKLELK
notes: Rat clone; VH/VL only
Kd [1]: 3.16 nM

B11: ZNRF3-117 (antibody, V domains shown)
VH: EIQLQESGPGLVKPSQSLSLTCSVTGYTITSDYDWSWIRKFPGNKMEWMGYINYSGSTNYNPSLKSRISFTRDTSKNQFFLQLNSITTDDTATYYCARYGPYYGFSDWYFDFWGPGTMVTVSS
VL: DVQMTQSPSYLAASPGESVSISCKASQSISNYLAWYQQKPGKTYRLLIYSGSTLQSGTPSRFSGSGSGTDFTLTIRSLEPEDFGLYYCQQYYEKPLTFGSGTKLEIK
notes: Rat clone; VH/VL only
Kd [1]: 0.2 nM

B12: RNF43-16 (antibody, V domains shown)
VH: QSVEESGGRLVTPGTPLTLTCTVSGFFLSSYYMSWVRQAPGKGLEWIGYIYAGSGSTYYASWAKGRFTISKTSTTVDLKITSPTTEDTATYFCVRDINGGDYGMDPWGPGTLVTVSS
VL: DIVMTQTPASVSAAVGGTVTIKCQASESIDSGLAWYQQKPGQRPKLLIYAASNLASGVSSRFKGSGSGTEYSLTISGVQCDDAATYYCQCTYGSVTSNTYGIAFGGGTEVVVK
notes: Rabbit clone; VH/VL only
Kd [2]: 37.8 nM

B13: ZNRF3-131 (antibody, V domains shown)
VH: EVQVVESGGGLVQPGRSLKVSCAASGFTFSRYGMAWVRQAPTKGLEWVASISTGGENTYYRDSVKGRFTISRDNVKNTLYLQMDSLRSEDTATYYCARHGRVLNYFDYWGQGVMVTVSL
VL: DIQMTQSPASLSASLGETVSIECLTSEDIYTYLAWYQQKPGKSPHLLIFAASRLQDGVPSRFSGSGSGTQYSLKISGMQPEDEGDYFCLQGSKFPYTFGAGTKLDLK
notes: Rat clone; VH/VL only
Kd [1]: 2.39 nM

B14: ZNRF3-101 (antibody, V domains shown)
VH: QVQLKESGPGLVQPTQTLSLTCTVSGFSLTSSTVSWVRQPPGKGLEWIAAISSAENTYYNSGLKSRLSISRDTSKSQVFLKMNSLQTEDTAMYFCAGGRILETLFDSWGQGVMVTVSS
VL: DIVLTQSPALAVSLGQRATISCKTNQNVDFYGKTYMHWYQQKRGQQPKLLIYLASNLASGIPARFSGRGSGTDFTLTIDPVATDDTATYYCQQTRSLPPTFGAGTKLELK
notes: Rat clone; VH/VL only
Kd [1]: 0.07 nM

B15: RNF43-128 (antibody, V domains shown)
VH: EVQLQESGPGLVKPSQSLSLTCSVTGFSITSHYKWNWIRKFPRNKLEWMGYIDNSGSTNYIPSLKSRISITRDTSKNQFFLQVNSVTTEDTATYYCARDCLDWGQGVMVTVSS
VL: DVVLTQTPPTLSATIGQSVSISCRSSQSLLHSNGNTYLHWLIQRPGQSPQLLIYLVSRLESGVPNRFSGSGSGTDFSVKISGVEAEDLGIYYCVQDTHTPWTFGGGTKLELK
notes: Rat clone; VH/VL only
binding result [2]: no binding

B16: ZNRF3-171 (antibody, V domains shown)
VH: QVQLHQSGTELARPGTSVKLSCKASGYTFSRFYINWVKKRPGQGLEWIGYIDPGNGGTFHSEKFKDKASLTADTSSSTAYMVLGSLAPEDSAFYFCVRGYYSSYDWFAYWGQGTLVTVSS
VL: DIQLTQSPSSMSASLGDRVSLTCQSSQGIGNYLSWYQHKPGEPPKPILYYATNLADGVPSRFSGSRSGSDYSLTISSLESEDTAIYYCLQYDEYPYTFGPGTKLELR
notes: Rat clone; VH/VL only
Kd [1]: 1.01 nM

B17: ZNRF3-172 (antibody, V domains shown)
VH: EVQLAESGGGLEQPGRSLKLSCAASGFTFSNYDMAWVRQAPTKGLEWVASIIASGGTTYYRDSVKGRFTVSRDNAKSTLYLQMDSLRSEDTATYYCARHGVGSYDWFADWGQGTLVTVSS
VL: DIVLTQSPALAVSLGQRATISCRASQSVTISGFNLMHWYQQKPGQQPKLLIYRASNLAFGIPARFSGSGSGTDFTLTINPVQADDITTYYCQQSRKSRTFGGGTKLELK
notes: Rat clone; VH/VL only
Kd [1]: 0.21 nM

B18: ZNRF3-30 (antibody, V domains shown)
VH: EVQLAESGGGLEQPGRSLKLSCAASGFTFSNYDMAWVRQAPTRGLEWVASILTSGGTTYYRDSVKGRFTVSRDNAKSTLYLQMDSLRSEDTATYYCARHGVGSYDWFADWGQGTLVTVSS
VL: DIVLTQSPALAVSLGQRATISCRASQSVTISGYNLMHWYQQKPGQQPKLLIYRASNLAFGIPARFSGSGSGTDFTLTINPVQADDITTYYCQQSRKSRTFGGGTRLELK
notes: Rat clone; VH/VL only
Kd [1]: 0.12 nM
